Measured values from PMC314469, “Protein Interaction Networks by Proteome Peptide Scanning” (PLoS Biology, 2004).

T1: amphyphisin SH3 (AMPH_HUMAN), P49418
T1 chain: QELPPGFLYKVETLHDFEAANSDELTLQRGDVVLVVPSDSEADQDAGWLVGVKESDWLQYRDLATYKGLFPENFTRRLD


Columns and labels:
[1] = target: T1, amphyphisin SH3 (AMPH_HUMAN), P49418; assay: SPOT array
[2] = target: endophilin SH3 (SH3G2_HUMAN), Q99962; assay: SPOT array

Binder | normalised SPOT signal, Boehringer light units (BLU); mean over the file's lines of this peptide [1] | normalised SPOT signal, Boehringer light units (BLU); mean over the file's lines of this peptide [2]
EHPEPKRPSVDSLV [Q9C0I2 974-987] | 50.2 | 0
EGNRPKKPPPPSAP [Q9NYR0 332-346] | 53.4 | 2130
EEPKILRPPRRPRK [Q9NYS8 1484-1497] | 12700 | 508
EGEEPKRPPGISER [Q9NS96 504-517] | 23.2 | 21.4
EHRPLKRPRPRLGP [Q9UHV6 43-56] | 22 | 82
AFVNFRRPEDARAA [Q96T37 218-231] | 17.2 | 51.2
EGTEPRRPRAGPEE [P18887 302-315] | 36.7 | 4.9
EGVPFRRPSTFGIP [P78347 776-789] | 31.2 | 112
EERALRRPGHLYLL [Q8WZ07 124-137] | 38.2 | 14.7
AGLRPPKPPRPASL [O75190 254-268] | 2380 | 12300
EIGFPGRPGRPGMN [P39060 984-997] | 139 | 108
EHREPKRPEIIFLP [O43196 121-134] | 31.2 | 43.4
AALLFLRPPRVRGH [Q9NPN2 39-52] | 8020 | 82.4
EGNKPQRPPPPRRP [Q04118 252-266] | 5630 | 18200
EFGLPGRPGRPGLN [P39059 904-917] | 282 | 141
EEEPPRRPRARSSE [O60301 1-14] | 4.2 | 26.3
EIMSPRKPPLFLTK [BAC04837 210-224] | 136 | 1680
EERPLRRPRPVQRT [Q9H7J2 535-548] | 836 | 678
EEVPPHKPPTLPLD [Q9BXF3 1468-1482] | 28.7 | 59.8
EGHALRRPPPRWLL [Q8WUK7 5-18] | 66.6 | 0
EEASFRRPHPDGDV [Q9UBD0 73-86] | 39.7 | 0.7

Binder | normalised SPOT signal, Boehringer light units (BLU); mean over the file's lines of this peptide [1] | normalised SPOT signal, Boehringer light units (BLU); mean over the file's lines of this peptide [2]
AGNLPSRPPPLSSP [Q96LQ5 87-101] | 59.7 | 1080
EGAAPRRPGFWGSL [Q92988 19-32] | 29.7 | 1570
EGISLRRPNSFGIA [O95444 608-621] | 27.1 | 51.5
EEAQIFRPLKFNTT [Q15029 572-585] | 83.5 | 75.8
EGTYPRRPGSSPKV [Q9UJX9 322-335] | 54.8 | 73.1
AFPRPKRPAPAQEA [Q9BQ84 248-261] | 145 | 154
EGQQLVRPKKLPLI [Q9H2U9 25-38] | 87.3 | 70
EGAVPRRPEDALLL [Q96ML3 90-103] | 72.5 | -0
EEEELARPPREQGQ [Q14767 745-758] | 154 | 150
EGIPFRRPSTYGIP [P78347 404-417] | 42.6 | 40.3
EHRPPEKPPRPPRP [Q8TEL4 107-121] | 9830 | 9880
EIAKLKRPTALKKV [Q93073 574-587] | 16.3 | 85.5
EEKVPEKPPTPKES [Q9HDC5 18-32] | 25 | 21.3
EGSMLRRPRTSSQH [Q92538 1455-1468] | 115 | 443
EHPRLRRPMPWLLL [Q9Y5I4 12-25] | 85.8 | 783
EGPSPARPPRRRTS [Q9Y5L9 2452-2466] | 16700 | 5340
EESLPKRPLGKHSK [Q8WYQ9 81-94] | 32.4 | 201
EEVVPPRPPLPRSY [CAD38934 123-137] | 109 | 8260
EGHRPRRPRGALPP [Q9UGQ7 111-124] | 27.1 | 2060
EEIALERPEKEIRN [Q9H5F4 313-326] | 122 | 0
EGLAFRRPAEYDPK [O95444 171-184] | 29.1 | 39.5
